According to US20190269761A1:

Experiments:
[1] = target: mSWI/SNF (BAF) complexes, endogenous; assay: urea denaturation and IP, as restated in the discussion
[2] = target: mSWI/SNF (BAF) complexes, endogenous; assay: urea denaturation of 293T nuclear extract followed by anti-Brg IP and immunoblot
[3] = target: mSWI/SNF (BAF) complexes, endogenous; assay: quantitative densitometry of anti-SS18 immunoblot of glycerol gradient, Aska-SS cells bearing SS18-SSX1
[4] = target: mSWI/SNF (BAF) complexes, endogenous; assay: urea denaturation and IP, as restated in the discussion; complexes of synovial sarcoma cells

SS18 (wild-type, endogenous human) (from UniProt Q15532 2-418)
urea concentration required to remove [1]: 8 M
urea concentration required to dissociate [2]: 5 M
percentage of BAF complexes that contain wild-type SS18 [3]: 2 to 8%

SS18-SSX1 fusion protein (from UniProt Q15532 1-379)
urea concentration required to remove [4]: 8 M
